Reference: patent US7598343B1, “Pharmaceutical formulations of bivalirudin and processes of making the same” (The Medicines Company, priority 2008, dated 2009)

What was measured:
Assay type in all cases: physicochemical
[1] = Asp^9-bivalirudin level by HPLC in portions of compounding solution adjusted to pH 8, 9, 10, 12 over time (Example 1, second part)
Description: In a second part of the study, four portions of the final compounding solution from the first part of the study were removed. The pH levels of these portions were adjusted to 8, 9, 10, and 12, respectively, using additional pH-adjusting solution and high shear mixing on a Silverson Laboratory Emulsifier (Model L4RT).
Samples of the portion of the compounding solution adjusted to pH 8 were taken immediately, and after about 80 minutes, 300 minutes, and 370 minutes. Samples of the portion of the compounding solution adjusted to pH 9 were taken immediately, after about 80 minutes, and 300 minutes. Further, samples of the portion of the compounding solution adjusted to pH 10 and 12 were taken immediately, after about 80 minutes and 170 minutes.

[2] = Isoelectric point of bivalirudin
[3] = Asp^9-bivalirudin level by HPLC in compounding solution under high shear mixing (Example 1, third part)
Excerpt: In a third part of the study, the final compounding solution from the first part of the study was placed into a recirculation vessel for use in a recirculation water bath (Precision Model 181) to be subjected to high shear mixing using a Silverson Laboratory Emulsifier (Model L4RT). Prior to this study, it was thought that bivalirudin solutions were unstable to both heat and shear, thus requiring extreme care in handling bivalirudin during the compounding process. Before subjecting the compounding solution to high shear mixing, the level of Asp^9-bivalirudin was recorded (measurement #1). The compounding solution was then subjected to high shear mixing at ˜6000 rpm for 30 minutes without use of the recirculation water bath; the temperature of the compounding solution due to the high shear mixing rose to about 36° C. A sample was then measured for Asp^9-bivalirudin level (measurement #2). The mixing speed was then slowed to 5000 rpm for 120 minutes and the temperature was measured at about 33° C., and another sample was analyzed for Asp^9-bivalirudin level (measurement #3).

[4] = Asp^9-bivalirudin level by HPLC after adding pH-adjusting solution in four equal portions with inefficient mixing (Example 1, first part)
Description: In a first part of the study, the bivalirudin solution (˜600 mL) comprised bivalirudin at a concentration of ˜0.1 mg/mL in a 2.64% w/w mannitol solution. The pH-adjusting solution (233 mL) comprised 0.5 N sodium hydroxide in a 2.64% w/w mannitol solution. Asp^9-bivalirudin levels were measured throughout the experiment by high-performance liquid chromatography (HPLC). pH was also measured through the experiment. One measurement of Asp^9-bivalirudin was taken immediately after the bivalirudin solution was formed (baseline).
The pH-adjusting solution was added to the bivalirudin solution in four equal portions over the total duration of about 1 hour at a temperature of 5-8° C., each addition separated by about 15 minutes. The resulting compounding solution was mixed at between 600 rpm and 700 rpm throughout the addition of the first and second portions of the pH-adjusting solution, and the pH and Asp^9-bivalirudin levels were recorded (measurements #1 and #2). During the addition of the third portion, the mixer was turned off and the pH and Asp^9-bivalirudin levels were recorded (measurement #3A). The mixture was then subjected to high shear mixing at 4000 rpm for 30 seconds and the pH and Asp^9-bivalirudin levels were recorded (measurement #3B). During addition of the fourth portion, the mixer was turned off and the levels of pH and Asp^9-bivaluridin were recorded (measurement #4A). Mixing was then continued for, at least, two minutes at 5300 rpm and the pH was and Asp^9-bilvairudun levels were recorded (measurement #4B). The mixing rate was decreased to about 3600 rpm for 1 hour and the pH and Asp^9-bivalirudin levels were recorded (measurement #5). A portion of the material from measurement #4a was allowed to stand for 7 hours and the pH and Asp^9-bivalirudin levels were recorded (measurement #6).

[5] = Asp^9-bivalirudin level by HPLC after adding pH-adjusting solution in two portions of 75% and 25% at 400 rpm (Example 2)
Description: The bivalirudin solution (˜760 mL) comprised bivalirudin at a concentration of 0.050 mg/ml dissolved in a 2.64% w/w mannitol solution. The pH-adjusting solution (233 mL) comprised 0.5 N sodium hydroxide in a 2.64% w/w mannitol solution. The experiment was conducted at a temperature of about 8° C.
The pH-adjusting solution was divided into a 75% portion and a 25% portion of the total pH-adjusting solution volume. First, the pH and Asp^9-bivalirudin levels were measured before addition of the pH-adjusting solution (baseline). During addition of the 75% portion, at about 400 rpm, the pH was monitored during mixing until the pH achieved a constant level at which time the Asp^9-bivalirudin level was also measured (measurement #1). A portion of this material was allowed to sit for about 6.5 hours and the amount of Asp^9-bivalirudin was again measured (measurement #2). The 25% portion of the pH-adjusting solution was added about 30 minutes after the last base addition and mixing was continued at 400 rpm. The pH was initially recorded and then both the pH and Asp^9-bivalirudin levels were measured after about 30 minutes of mixing (measurement #3). The pH and Asp^9-bivalirudin levels were again recorded after mixing at 400 rpm overnight (measurement #4).

[6] = Asp^9-bivalirudin level by HPLC after constant-rate addition of pH-adjusting solution under high shear mixing (Example 3)
Description: The bivalirudin solution (675 mL) comprised 64.4 g dissolved in 2.64% w/w mannitol solution. The bivalirudin solution was divided in half for evaluation of adding the pH-adjusting solution at two different mixing rates. The bivalirudin solution was placed in a vessel with a high shear mixer.
The pH-adjusting solution (131.2 mL) comprised 0.5 N sodium hydroxide in a 2.64% w/w mannitol solution. The pH-adjusting solution was loaded into a burette, which was connected on the bottom to a tube with a hose. The tube was positioned at the base of the high shear mixer blade inside the mixing vessel containing the bivalirudin solution. A clamp was used to restrict the pH-adjusting solution from passing through the hose.
The speed of the high shear mixer (Silverson Laboratory Emulsifier Model L4RT) was set to either 1500 rpm or 3000 rpm. The clamp on the hose was removed and the pH-adjusting solution was then added to the bivalirudin solution at a controlled, constant rate of approximately 2 L/min.
The volume of the compounding solution was then adjusted to a final volume of 562.5 mL.
For the compounding solution mixed at 1500 rpm, after the pH-adjusting solution was added, the mixing speed was increased to approximately 4500 rpm for a short period of time to allow faster and complete dissolution, and then reduced to 1500 rpm until the solution was completely dissolved. After complete dissolution, the resulting compounding solution was moved from the vessel to a beaker which contained a stir bar. The solution was adjusted to a target pH of 5.3 using 19 mL of the pH-adjusting solution, and then the volume was adjusted to a final volume of 562.5 mL.
For both mixing conditions, the pH was monitored throughout the addition of the pH-adjusting solution to the bivalirudin solution to form the compounding solution. The level of Asp^9-bivalirudin was measured by HPLC before (baseline) addition of the pH-adjusting solution, after the addition of the pH-adjusting solution (measurement #2), and after the volume of the compounding solution was adjusted to mark (measurement #3).

D-Phenylalanyl-L-Prolyl-L-Arginyl-L-Prolyl-Glycyl-Glycyl-Glycyl-Glycyl-L-Asparagyl-Glycyl-L-Aspartyl-L-Phenylalanyl-L-Glutamyl-L-Glutamyl-L-Isoleucyl-L-Prolyl-L-Glutamyl-L-Glutamyl-L-Tyrosyl-L-Leucine trifluoroacetate (salt) hydrate [bivalirudin]
% Asp^9-bivalirudin ([1]; Baseline, pH 5): 0.71% | % Asp^9-bivalirudin ([1]; pH 8, after pH was adjusted): 0.71% | % Asp^9-bivalirudin ([1]; pH 8, after ~80 minutes): 0.77% | % Asp^9-bivalirudin ([1]; pH 8, after ~300 minutes): 1.11% | % Asp^9-bivalirudin ([1]; pH 8, after ~370 minutes): 1.26% | % Asp^9-bivalirudin ([1]; pH 9, after pH was adjusted): 0.84% | % Asp^9-bivalirudin ([1]; pH 9, after ~80 minutes): 1.07% | % Asp^9-bivalirudin ([1]; pH 9, after ~300 minutes): 1.84% | % Asp^9-bivalirudin ([1]; pH 10, after pH was adjusted): 1.24% | % Asp^9-bivalirudin ([1]; pH 10, after ~80 minutes): 2.08% | % Asp^9-bivalirudin ([1]; pH 10, after ~170 minutes): 2.59% | % Asp^9-bivalirudin ([1]; pH 12, after pH was adjusted): 4.71% | % Asp^9-bivalirudin ([1]; pH 12, after ~80 minutes): 8.20% | % Asp^9-bivalirudin ([1]; pH 12, after ~170 minutes): 10.95% | isoelectric point [2]: about 3.6 | % Asp^9-bivalirudin ([3]; #1: before high shear mixing, RT ~20° C.): 0.71% | % Asp^9-bivalirudin ([3]; #2: after high shear mixing at 6000 rpm for 30 minutes, 36° C.): 0.71% | % Asp^9-bivalirudin ([3]; #3: after mixing rate was reduced to 5000 rpm for 120 minutes, 33° C.): 0.75% | stability to high shear mixing conditions ([3]; high shear mixing 6000/5000 rpm): stable | % Asp^9-bivalirudin ([4]; #2: after addition of second portion of pH-adjusting solution, pH 4.2): 0.43% | % Asp^9-bivalirudin ([4]; #3A: after addition of third portion with no mixing, pH ~6 to 8): 0.45% | % Asp^9-bivalirudin ([4]; #3B: same as #3A but after mixing (4000 rpm, 30 seconds), pH 5.0): 0.74% | % Asp^9-bivalirudin ([4]; #4A: after fourth portion, sat for 10 minutes with no mixing, pH ~8.5 to 9): 0.60% | % Asp^9-bivalirudin ([4]; #4B: same as #4A but after mixing, pH 6.0 to 6.5): 0.57% | % Asp^9-bivalirudin ([4]; #5: same as #4A but after high speed mixing for 1 hour, pH 5.0): 0.71% | % Asp^9-bivalirudin ([4]; #6: same as #4A but 7 hours later with no mixing, pH ~8.5 to 9): 2.05% | % Asp^9-bivalirudin ([4]; Baseline: after bivalirudin solution was formed, pH ~2.5): ~0.42% | % Asp^9-bivalirudin ([5]; #1: after addition of 75% portion, pH peak at 12.2 then dropped to 8-9): 0.44% | % Asp^9-bivalirudin ([5]; #2: same as #1 but after sitting for 6.5 hours with no stirring): 0.88% | % Asp^9-bivalirudin ([5]; #3: remaining 25% added, pH 12.4 initially then 7.7 after 30 minutes, taken from the bottom): 2.19% | % Asp^9-bivalirudin ([5]; #3: remaining 25% added, pH 12.4 initially then 7.7 after 30 minutes, taken from the top): 1.85% | % Asp^9-bivalirudin ([5]; #4: same as #3 but after mixing overnight, pH 5.0): 1.57% | % Asp^9-bivalirudin ([5]; Baseline: after bivalirudin solution was formed, pH 1.71): 0.42% | % Asp^9-bivalirudin ([6]; 1500 rpm, #1 after addition of pH-adjusting solution, pH ~6.0): 0.31% | % Asp^9-bivalirudin ([6]; 1500 rpm, #2 after compounding solution was adjusted to mark, pH 5.3): 0.34% | % Asp^9-bivalirudin ([6]; 1500 rpm, Baseline before addition of pH-adjusting solution, pH ~2.5): 0.38% | % Asp^9-bivalirudin ([6]; 3000 rpm, #1 after addition of pH-adjusting solution, pH ~5.6): 0.41% | % Asp^9-bivalirudin ([6]; 3000 rpm, #2 after compounding solution was adjusted to mark, pH 5.25): 0.40% | % Asp^9-bivalirudin ([6]; 3000 rpm, Baseline before addition of pH-adjusting solution, pH ~2.5): 0.43% | degradation by high shear mixing ([6]; high shear mixing even up to 4500 rpm): not susceptible to degradation
